These are literature values, as cited in article PMC9772450, “Gel-forming antagonist provides a lasting effect on CGRP-induced vasodilation” (Frontiers in Pharmacology, 2022).

Data set [1] relates to migraine. The note with it: 31% at baseline; 40–50% in the placebo group; ref Cady et al., 2022. The source says: Migraine is a common complex neurovascular disorder that is manifested as episodic and predominantly unilateral throbbing headache with hypersensitivity to light, sound, and movement ([Erdener and Dalkara, 2014]; [Schuster and Rapoport, 2016]). According to the World Health Organization, 324 million people worldwide suffer from incapacitating migraine in 2008. In ∼ one-third of patients, migraine headaches are accompanied by an aura involving neurological symptoms such as transient visual, sensory, or motor disturbances ([Goadsby et al., 2002]). In the US, it was reported that 15% of Americans ...

For data set [2] the following is noted: antibodies; ref https://go.drugbank.com/drugs.
For data set [3], the system named is capsaicin-induced dermal blood flow. The conditions noted are these: in patients; ref Vu et al., 2017. The source says:
It is known that anti-CGRP gepants could occupy a binding site close to the interface of the N-terminal domains of CLR and RAMP1, and act by allosteric regulation ([Miller et al., 2010]). Although the gepants compounds have low IC50 values in receptor activation assays in vitro, it is well documented that gepants need high concentrations to bloc ...

B1: eptinezumab: anti-CGRP antibody (antibody, chains of the INN, looked up, V domains shown)
VH: EVQLVESGGGLVQPGGSLRLSCAVSGIDLSGYYMNWVRQAPGKGLEWVGVIGINGATYYASWAKGRFTISRDNSKTTVYLQMNSLRAEDTAVYFCARGDIWGQGTLVTVSS
VL: QVLTQSPSSLSASVGDRVTINCQASQSVYHNTYLAWYQQKPGKVPKQLIYDASTLASGVPSRFSGSGSGTDFTLTISSLQPEDVATYYCLGSYDCTNGDCFVFGGGTKVEIK
In the case of B1, the “Proportion of patients with moderate/maximal optimization at week four” value in data set [1] is on record as 58%.

B2: erenumab: anti-CGRP receptor antibody (antibody, chains of the INN, looked up, V domains shown)
VH: QVQLVESGGGVVQPGRSLRLSCAASGFTFSSFGMHWVRQAPGKGLEWVAVISFDGSIKYSVDSVKGRFTISRDNSKNTLFLQMNSLRAEDTAVYYCARDRLNYYDSSGYYHYKYYGMAVWGQGTTVTVSS
VL: QSVLTQPPSVSAAPGQKVTISCSGSSSNIGNNYVSWYQQLPGTAPKLLIYDNNKRPSGIPDRFSGSKSGTSTTLGITGLQTGDEADYYCGTWDSRLSAVVFGGGTKLTVL
As for B2, in data set [2], the Volume of distribution is 3.86 L. Besides, in data set [3], the “Concentration required for 50% inhibition of capsaicin-induced dermal blood flow” value is reported as 0.255 mg/L and the “Concentration required for 99% inhibition of capsaicin-induced dermal blood flow” value is 1.134 mg/L.

B3: galcanezumab: anti-CGRP antibody (antibody, chains of the INN, looked up, V domains shown)
VH: QVQLVQSGAEVKKPGSSVKVSCKASGYTFGNYWMQWVRQAPGQGLEWMGAIYEGTGKTVYIQKFADRVTITADKSTSTAYMELSSLRSEDTAVYYCARLSDYVSGFGYWGQGTTVTVSS
VL: DIQMTQSPSSLSASVGDRVTITCRASKDISKYLNWYQQKPGKAPKLLIYYTSGYHSGVPSRFSGSGSGTDFTLTISSLQPEDFATYYCQQGDALPPTFGGGTKVEIK
As to B3, the Volume of distribution in data set [2] is listed as 7.3 L.
